Numbering of substitutions follows the chain as printed.
T1: MutS (Escherichia coli, UniProt P23909 1-853)
T1 sequence: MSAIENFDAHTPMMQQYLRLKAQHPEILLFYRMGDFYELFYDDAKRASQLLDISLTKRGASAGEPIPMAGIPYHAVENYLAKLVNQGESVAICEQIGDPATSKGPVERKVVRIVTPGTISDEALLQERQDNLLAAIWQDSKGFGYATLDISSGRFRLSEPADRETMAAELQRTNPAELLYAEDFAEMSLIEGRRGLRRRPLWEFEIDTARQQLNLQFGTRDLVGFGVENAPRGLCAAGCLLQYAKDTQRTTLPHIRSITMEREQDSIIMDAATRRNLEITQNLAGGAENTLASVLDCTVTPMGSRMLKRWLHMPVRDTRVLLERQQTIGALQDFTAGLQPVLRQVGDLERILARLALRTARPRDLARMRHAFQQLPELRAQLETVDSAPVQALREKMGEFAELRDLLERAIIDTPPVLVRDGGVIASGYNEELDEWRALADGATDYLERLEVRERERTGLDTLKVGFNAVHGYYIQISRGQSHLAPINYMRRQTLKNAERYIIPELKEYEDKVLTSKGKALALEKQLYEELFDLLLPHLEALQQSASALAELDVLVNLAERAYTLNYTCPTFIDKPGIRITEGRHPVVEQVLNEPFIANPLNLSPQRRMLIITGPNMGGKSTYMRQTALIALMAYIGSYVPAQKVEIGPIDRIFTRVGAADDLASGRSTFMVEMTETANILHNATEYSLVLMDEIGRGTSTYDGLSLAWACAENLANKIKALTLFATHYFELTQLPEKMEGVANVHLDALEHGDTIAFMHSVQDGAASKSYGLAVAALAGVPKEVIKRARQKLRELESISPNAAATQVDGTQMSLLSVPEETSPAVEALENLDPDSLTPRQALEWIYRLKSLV

B1: G-T mismatch heteroduplex (dsDNA)
DNA 1: CTAGCAAGCTTTCGATTCTAGAAATTCGGC
DNA 2: GCCGAATTTCTAGAATTGAAAGCTTGCTAG
B2: Homoduplex (dsDNA)
DNA 1: B1 DNA 1 with G14A
DNA 2: B1 DNA 2

Key:
MutS [1] = target: T1, MutS; experiment: EMSA; no nucleotide; 5 mM Mg2+; homoduplex competitor; 20 mM Tris pH 7.6, 5 mM MgCl2, 1 mM DTT, 50 ug/ml BSA, 10 mM KCl, 200 fmol homoduplex competitor, 10-20 fmol labeled DNA in 20 ul; 6% native PAGE 0.5X TBE with; conditions: protein: recombinant; tags: His; chain copies: 2; label: 5' 32P; blunt; single G-T mismatch at position 14 of strand 1
MutS [2] = target: T1, MutS; experiment: EMSA; 38-150 nM protein; 20 mM Tris pH 7.6, 5 mM MgCl2, 1 mM DTT, 50 ug/ml BSA, 10 mM KCl, 200 fmol homoduplex competitor, 10-20 fmol labeled DNA in 20 ul; 6% native PAGE 0.5X TBE with; conditions: protein: recombinant; tags: His; chain copies: 2; label: 32P; blunt

Binder | binding signal (MutS [1]) | binding result (MutS [2])
B1 | > 2 fold Kd of MutS for TP-G4 | 
B2 |  | no binding

From publication PMC3437207, “G-quadruplex recognition activities of E. Coli MutS”
